T1: Glutathione S-transferase (GST)-tagged AITR (human, UniProt Q9Y5U5 26-139)
T1 construct: also called GST-AITR antigen; GST-AITR analyte; not shown: Glutathione S-transferase (GST) tag
T1 sequence (looked up): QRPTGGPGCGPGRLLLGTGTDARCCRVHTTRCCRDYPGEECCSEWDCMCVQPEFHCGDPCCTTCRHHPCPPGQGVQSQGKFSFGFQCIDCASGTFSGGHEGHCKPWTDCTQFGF

T2: human AITR expressed on the cell surface (human, UniProt Q9Y5U5 26-241)
T2 sequence (looked up): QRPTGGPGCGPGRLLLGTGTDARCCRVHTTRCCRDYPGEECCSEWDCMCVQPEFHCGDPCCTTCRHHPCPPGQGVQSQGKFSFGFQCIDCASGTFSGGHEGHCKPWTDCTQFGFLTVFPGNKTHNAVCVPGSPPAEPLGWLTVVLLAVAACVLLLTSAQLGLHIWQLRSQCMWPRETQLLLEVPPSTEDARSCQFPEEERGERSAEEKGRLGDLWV

T3: R12 AA 75-139
T3 construct: also called GST fusion protein construct R12 (AITR deletion mutant)
T3 GST fusion protein: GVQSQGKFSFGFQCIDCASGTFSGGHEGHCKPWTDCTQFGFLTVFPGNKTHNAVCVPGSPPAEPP


Tests used:
[1] = target: T1, Glutathione S-transferase (GST)-tagged …; assay: KD ratio against parental IRTCA-A, repeated from the SPR of Table 3
[2] = target: T1, Glutathione S-transferase (GST)-tagged …; assay: as above; remark: listed apart in the source
[3] = target: T1, Glutathione S-transferase (GST)-tagged …; assay: SPR, Fab against the AITR antigen; ratio against parental IRTCA-A
[4] = target: T1, Glutathione S-transferase (GST)-tagged …; assay: KD ratio against parental IRTCA-A, repeated from the SPR of Table 3; remark: listed apart in the source
[5] = target: T1, Glutathione S-transferase (GST)-tagged …; assay: SPR, Fab against the AITR antigen
[6] = target: T2, human AITR expressed on the cell surface; assay: cell-based or functional assay
R12 AA 75-139 = target: T3, R12 AA 75-139; assay: Western blot and ELISA on GST-AITR deletion constructs
Protocol: Binding of the anti-AITR antibodies IRTCA-A (A27), H1F1, H1F1M69 and H1F1M74 to the GST-fusion proteins R1-R12 was assessed using Western blot analysis, in which the GST-fusion proteins were resolved by 12% SDS-PAGE and subjected to immunoblotting using the antibodies IRTCA-A, H1F1, H1F1M69 and H1F1M74. Anti-Human IgG-HRP (1:5000; Jackson Laboratories, Bar Harbor, Me.) was used as the secondary antibody. Detection of chemiluminescence was obtained by using SuperSignal West Pico Chemiluminescent Substrate (Pierce, Rockford, Ill.).

[7] = target: T1, Glutathione S-transferase (GST)-tagged …; assay: SPR (Biacore T200), antibody captured by anti-human IgG(Fc), GST-AITR analyte 3.12-100 nM
Protocol: This example assesses the ability of mutant anti-AITR antibodies to bind to an AITR antigen recognized by the parent antibody, H1F1. Surface plasmon resonance was used in order to determine the ability of mutant anti-AITR antibodies to bind to AITR.
A Biacore T200 with a CMS sensor chip was run using HBS-EP running buffer at pH 7.4 and 3M magnesium chloride regeneration buffer. Anti-human IgG(Fc) antibodies were immobilized to the CMS chip via amine coupling and 6 minute injections at a flow rate of 5 μL/minute were performed with an immobilization buffer of 10 mM sodium acetate at pH 5.0. The capture antibodies tested were parent antibody H1F1 and mutant antibodies M69 and M74. Glutathione S-transferase (GST)-tagged AITR analyte was injected at concentrations of 3.12, 6.25, 12.5, 25, 50 and 100 nM, with an association time of 150 seconds and a dissociation time of 240 seconds.

| Binder | KD Ratio [1] | KD Ratio [2] | KD Ratio [3] | KD Ratio [4] | Ka [5] | Kd [5] | koff [5] | kon [5] | secretion of IFN-γ by CD4+ T cells at 0.5 µg, against IRTCA-A [6] | binding result (R12 AA 75-139) | Kd [7] |
| --- | --- | --- | --- | --- | --- | --- | --- | --- | --- | --- | --- |
| Parental IRTCA-A Fab (Fab, V domains shown) VH: QVQLVQSGTQVKMPGASVKVSCKASGYTFDDYGIGWVRQAPGQGLEWMGWISPYTHRTNSSPKLQDRVTMTTDTSTSTAYMELRSLRSDDTAVYYCARDGTYYDFWSGYFDNGAFDIWGQGTLVTVSS VL: QSVVTQPPSVSAAPGQKVTISCSGSTSNIGNNYVSWYQQLPGTAPKLLIYDNYKRPSGIPDRFSGSKSGTSATLGITGLRTGDEADYFCGTWDSSLNAWVFGGGTKLTVL | 1 fold | 1 fold | 1 fold | 1 fold | 8.74e+06 M⁻¹ | 114 nM | 0.00134 s⁻¹ | 11700 M⁻¹ s⁻¹ |  |  |  |
| IRTCA-A1 (Clone L1E9) Fab (Fab, V domains shown) VH: QVQLVQSGTQVKMPGASVKVSCKASGYTFDDYGIGWVRQAPGQGLEWMGWISPYTHRTNSSPKLQDRVTMTTDTSTSTAYMELRSLRSDDTAVYYCARDGTYYDFWSGYFDNGAFDIWGQGTLVTVSS VL: QSVVTQPPSVSAAPGQKVTISCSGSTSNIGNNYVSWYQQLPGTAPKLLIYDNYKRPSGIPDRFSGSKSGTSATLGITGLRTGDEADYFCGSWESGSNAYKFGGGTKLTVL | 8.2 fold | 8.2 fold | 8.2 fold | 8.2 fold | 7.18e+07 M⁻¹ | 13.9 nM | 0.000412 s⁻¹ | 29600 M⁻¹ s⁻¹ |  |  |  |
| IRTCA-A10 (Clone H1A10) Fab (Fab, V domains shown) VH: QVQLVQSGTQVKMPGASVKVSCKASGYTFDDYGIGWVRQAPGQGLEWMGWISPYTHRTNSSPKLQDRVTMTTDTSTSTAYMELRSLRSDDTAVYYCARDGTYYDFWSGYFDNAAFDSWGQGTLVTVSS VL: QSVVTQPPSVSAAPGQKVTISCSGSTSNIGNNYVSWYQQLPGTAPKLLIYDNYKRPSGIPDRFSGSKSGTSATLGITGLRTGDEADYFCGTWDSSLNAWVFGGGTKLTVL | 8.4 fold | 8.4 fold | 8.38 fold | 8.4 fold | 7.34e+07 M⁻¹ | 13.6 nM | 0.000565 s⁻¹ | 41500 M⁻¹ s⁻¹ |  |  |  |
| IRTCA-A12 (Clone H2A10) Fab (Fab, V domains shown) VH: QVQLVQSGTQVKMPGASVKVSCKASGYTFDDYGIGWVRQAPGQGLEWMGWISPYTHRTNSSPKLQDRVTMTTDTSTSTAYMELRSLRSDDTAVYYCARDGTYYDFWSGYFDNATFDFWGQGTLVTVSS VL: QSVVTQPPSVSAAPGQKVTISCSGSTSNIGNNYVSWYQQLPGTAPKLLIYDNYKRPSGIPDRFSGSKSGTSATLGITGLRTGDEADYFCGTWDSSLNAWVFGGGTKLTVL | 27.6 fold | 27.6 fold | 27.6 fold | 27.6 fold | 2.42e+08 M⁻¹ | 4.13 nM | 0.000288 s⁻¹ | 69700 M⁻¹ s⁻¹ | ≥ 200% |  |  |
| IRTCA-A14 (Clone H2F8) Fab (Fab, V domains shown) VH: QVQLVQSGTQVKMPGASVKVSCKASGYTFDDYGIGWVRQAPGQGLEWMGWISPYTHRTNSSPKLQDRVTMTTDTSTSTAYMELRSLRSDDTAVYYCARDGTYYDFWSGYFDTAAFDIWGQGTLVTVSS VL: QSVVTQPPSVSAAPGQKVTISCSGSTSNIGNNYVSWYQQLPGTAPKLLIYDNYKRPSGIPDRFSGSKSGTSATLGITGLRTGDEADYFCGTWDSSLNAWVFGGGTKLTVL | 30.1 fold | 30.1 fold | 30.1 fold | 30.1 fold | 2.64e+08 M⁻¹ | 3.79 nM | 0.00027 s⁻¹ | 71100 M⁻¹ s⁻¹ | ≥ 200% |  |  |
| IRTCA-A15 (Clone H1F1) Fab (Fab, V domains shown) VH: QVQLVQSGTQVKMPGASVKVSCKASGYTFDDYGIGWVRQAPGQGLEWMGWISPYTHRTNSSPKLQDRVTMTTDTSTSTAYMELRSLRSDDTAVYYCARDGTYYDFWSGYFDNNAFDIWGQGTLVTVSS VL: QSVVTQPPSVSAAPGQKVTISCSGSTSNIGNNYVSWYQQLPGTAPKLLIYDNYKRPSGIPDRFSGSKSGTSATLGITGLRTGDEADYFCGTWDSSLNAWVFGGGTKLTVL | 44.4 fold | 44.4 fold | 44.4 fold | 44.4 fold | 3.9e+08 M⁻¹ | 2.57 nM | 0.000334 s⁻¹ | 130000 M⁻¹ s⁻¹ | ≥ 200% |  |  |
| IRTCA-A (A27) anti-AITR monoclonal antibody (antibody, V domains shown, Monoclonal antibody form, detected with anti-human IgG-HRP; constant regions not specified for this antibody) VH: QVQLVQSGTQVKMPGASVKVSCKASGYTFDDYGIGWVRQAPGQGLEWMGWISPYTHRTNSSPKLQDRVTMTTDTSTSTAYMELRSLRSDDTAVYYCARDGTYYDFWSGYFDNGAFDIWGQGTLVTVSS VL: QSVVTQPPSVSAAPGQKVTISCSGSTSNIGNNYVSWYQQLPGTAPKLLIYDNYKRPSGIPDRFSGSKSGTSATLGITGLRTGDEADYFCGTWDSSLNAWVFGGGTKLTVL |  |  |  |  |  |  |  |  |  | no binding |  |
| H1F1 anti-AITR monoclonal antibody (antibody, V domains shown, Bivalent antibody captured by anti-human IgG(Fc); constant regions not specified for this antibody; also called parent antibody H1F1) VH: QVQLVQSGTQVKMPGASVKVSCKASGYTFDDYGIGWVRQAPGQGLEWMGWISPYTHRTNSSPKLQDRVTMTTDTSTSTAYMELRSLRSDDTAVYYCARDGTYYDFWSGYFDNNAFDIWGQGTLVTVSS VL: QSVVTQPPSVSAAPGQKVTISCSGSTSNIGNNYVSWYQQLPGTAPKLLIYDNYKRPSGIPDRFSGSKSGTSATLGITGLRTGDEADYFCGTWDSSLNAWVFGGGTKLTVL |  |  |  |  |  |  |  |  |  | no binding | 0.789 nM |
| H1F1.M69 (H1F1.H2.J1/H1F1.L3.J1) (antibody, V domains shown, Made in Expi293 cells from HC and LC DNA) VH: QVQLVQSGAQVKMPGESLKVSCKASGYTFTDYGMGWVRQAPGQGLEWMGWISPYTGRTNSSDKFQGRVTMTRDTSTSTAYMELRSLRSEDTAVYYCARDGTYYDFWSGYFDNNAFDIWGQGTLVTVSS VL: QSVVTQPPSVSGAPGQRVTISCSGSTSNIGNNYVSWYQQLPGTAPKLLIYDNYKRPSGVPDRFSGSKSGTSASLAITGLQTEDEADYYCGTWDSSLNAWVFGGGTKLTVL |  |  |  |  |  |  |  |  |  | no binding | 0.657 nM |
| H1F1.M74 (H1F1.H8/H1F1.L3.J2) (antibody, V domains shown, Made in Expi293 cells from HC and LC DNA) VH: QVQLVQSGAQVKMPGESLKVSCKASGYTFDDYGMGWVRQAPGQCLEWMGWISPYTGRTNSSDKFQGRVTMTRDTSTSTAYMELRSLRSEDTAVYYCARDGTYYDFWSGYFDNNAFDIWGQGTLVTVSS VL: QSVVTQPPSVSGAPGQRVTISCSGSTSNIGNNYVSWYQQLPGTAPKLLIYDNYKRPSGVPDRFSGSKSGTSASLAITGLQSEDEADYYCGSWESGSNAYKFGGGTKLTVL |  |  |  |  |  |  |  |  |  |  | 0.966 nM |
